Measurements taken from patent US7718391B2, “Assays for identifying modulators of rhomboid polypeptides” (Medical Research Council, priority 2001, dated 2010).

T1: Drosophila Keren
T1 sequence: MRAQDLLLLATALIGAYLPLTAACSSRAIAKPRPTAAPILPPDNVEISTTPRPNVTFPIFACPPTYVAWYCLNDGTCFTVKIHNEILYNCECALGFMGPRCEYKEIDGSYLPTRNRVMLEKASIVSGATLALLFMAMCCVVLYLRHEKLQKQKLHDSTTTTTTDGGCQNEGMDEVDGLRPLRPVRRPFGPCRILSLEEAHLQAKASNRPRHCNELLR

T2: Drosophila Gurken
T2 sequence: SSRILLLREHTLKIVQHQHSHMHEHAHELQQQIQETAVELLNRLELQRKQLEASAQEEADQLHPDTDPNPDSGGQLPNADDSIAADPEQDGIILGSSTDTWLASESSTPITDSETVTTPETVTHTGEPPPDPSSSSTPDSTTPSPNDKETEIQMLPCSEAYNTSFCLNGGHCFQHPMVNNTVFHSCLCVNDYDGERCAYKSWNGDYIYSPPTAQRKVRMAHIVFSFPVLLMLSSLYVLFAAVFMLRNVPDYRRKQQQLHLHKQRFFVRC

T3: Drosophila EGF receptor (UniProt P04412)
T3 sequence: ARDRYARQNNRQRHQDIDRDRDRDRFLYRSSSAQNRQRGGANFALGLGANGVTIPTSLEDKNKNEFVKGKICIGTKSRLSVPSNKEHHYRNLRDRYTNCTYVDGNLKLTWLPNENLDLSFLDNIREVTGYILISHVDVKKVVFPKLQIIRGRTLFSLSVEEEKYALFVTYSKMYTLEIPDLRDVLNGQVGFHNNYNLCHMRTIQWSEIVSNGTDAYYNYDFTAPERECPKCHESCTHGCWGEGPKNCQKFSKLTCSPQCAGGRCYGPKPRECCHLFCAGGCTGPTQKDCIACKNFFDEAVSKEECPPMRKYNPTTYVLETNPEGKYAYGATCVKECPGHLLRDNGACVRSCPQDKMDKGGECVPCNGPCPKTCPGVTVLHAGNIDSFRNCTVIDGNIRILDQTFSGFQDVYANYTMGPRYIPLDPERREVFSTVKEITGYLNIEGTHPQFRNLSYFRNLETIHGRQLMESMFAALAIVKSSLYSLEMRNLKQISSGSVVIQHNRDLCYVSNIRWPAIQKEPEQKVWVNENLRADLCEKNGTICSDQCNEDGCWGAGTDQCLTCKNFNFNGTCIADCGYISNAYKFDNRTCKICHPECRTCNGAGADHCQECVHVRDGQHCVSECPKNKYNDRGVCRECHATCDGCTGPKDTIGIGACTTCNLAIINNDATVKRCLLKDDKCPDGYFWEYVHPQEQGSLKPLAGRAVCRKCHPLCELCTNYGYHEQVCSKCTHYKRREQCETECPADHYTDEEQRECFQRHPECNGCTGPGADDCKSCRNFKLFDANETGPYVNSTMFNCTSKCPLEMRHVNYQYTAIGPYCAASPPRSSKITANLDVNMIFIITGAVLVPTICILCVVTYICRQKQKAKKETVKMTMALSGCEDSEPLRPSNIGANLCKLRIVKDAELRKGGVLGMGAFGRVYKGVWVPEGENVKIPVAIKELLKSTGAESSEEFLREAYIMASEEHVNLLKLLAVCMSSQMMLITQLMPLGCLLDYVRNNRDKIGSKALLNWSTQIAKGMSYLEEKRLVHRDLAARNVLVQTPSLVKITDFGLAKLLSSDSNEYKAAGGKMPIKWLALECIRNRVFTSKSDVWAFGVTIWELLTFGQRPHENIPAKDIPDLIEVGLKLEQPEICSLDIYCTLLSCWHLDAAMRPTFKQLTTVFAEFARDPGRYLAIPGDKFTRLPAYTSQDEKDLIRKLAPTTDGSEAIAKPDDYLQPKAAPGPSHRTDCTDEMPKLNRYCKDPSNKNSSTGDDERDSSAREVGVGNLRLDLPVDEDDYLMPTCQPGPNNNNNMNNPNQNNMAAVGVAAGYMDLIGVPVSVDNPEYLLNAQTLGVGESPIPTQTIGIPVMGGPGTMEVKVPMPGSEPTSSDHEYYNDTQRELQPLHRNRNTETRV

T4: GFP-Spitz (Drosophila Spitz with EGFP inserted between residues 33 and 34)
T4 sequence: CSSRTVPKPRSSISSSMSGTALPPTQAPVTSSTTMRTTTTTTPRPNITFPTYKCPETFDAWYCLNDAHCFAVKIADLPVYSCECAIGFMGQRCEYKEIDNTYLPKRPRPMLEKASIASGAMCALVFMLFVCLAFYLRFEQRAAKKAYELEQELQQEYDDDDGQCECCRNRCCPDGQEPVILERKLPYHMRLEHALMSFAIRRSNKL

T5: Drosophila Delta, P10041
T5 chain: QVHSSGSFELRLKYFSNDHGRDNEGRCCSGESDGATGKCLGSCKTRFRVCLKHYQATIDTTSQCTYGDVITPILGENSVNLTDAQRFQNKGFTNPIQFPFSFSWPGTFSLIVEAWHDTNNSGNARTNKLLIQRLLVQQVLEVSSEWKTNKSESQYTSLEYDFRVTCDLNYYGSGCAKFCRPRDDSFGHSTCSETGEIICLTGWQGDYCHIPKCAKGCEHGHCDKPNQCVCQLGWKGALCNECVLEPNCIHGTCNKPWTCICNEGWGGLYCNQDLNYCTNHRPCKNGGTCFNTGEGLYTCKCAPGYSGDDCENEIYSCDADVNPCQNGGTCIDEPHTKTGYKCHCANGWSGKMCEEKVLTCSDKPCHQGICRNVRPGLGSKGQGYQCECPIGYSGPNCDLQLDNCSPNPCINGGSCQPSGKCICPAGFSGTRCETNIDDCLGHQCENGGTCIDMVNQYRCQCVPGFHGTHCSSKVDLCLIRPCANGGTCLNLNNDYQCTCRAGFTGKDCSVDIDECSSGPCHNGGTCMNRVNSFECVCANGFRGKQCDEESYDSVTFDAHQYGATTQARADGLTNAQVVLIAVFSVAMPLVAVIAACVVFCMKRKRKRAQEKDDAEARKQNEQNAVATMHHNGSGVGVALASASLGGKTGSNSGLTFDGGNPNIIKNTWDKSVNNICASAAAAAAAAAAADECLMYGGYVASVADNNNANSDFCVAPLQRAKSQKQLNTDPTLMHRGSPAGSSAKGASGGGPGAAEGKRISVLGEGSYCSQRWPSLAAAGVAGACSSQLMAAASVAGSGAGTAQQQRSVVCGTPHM

T6: Drosophila EGF receptor, P04412
T6 chain: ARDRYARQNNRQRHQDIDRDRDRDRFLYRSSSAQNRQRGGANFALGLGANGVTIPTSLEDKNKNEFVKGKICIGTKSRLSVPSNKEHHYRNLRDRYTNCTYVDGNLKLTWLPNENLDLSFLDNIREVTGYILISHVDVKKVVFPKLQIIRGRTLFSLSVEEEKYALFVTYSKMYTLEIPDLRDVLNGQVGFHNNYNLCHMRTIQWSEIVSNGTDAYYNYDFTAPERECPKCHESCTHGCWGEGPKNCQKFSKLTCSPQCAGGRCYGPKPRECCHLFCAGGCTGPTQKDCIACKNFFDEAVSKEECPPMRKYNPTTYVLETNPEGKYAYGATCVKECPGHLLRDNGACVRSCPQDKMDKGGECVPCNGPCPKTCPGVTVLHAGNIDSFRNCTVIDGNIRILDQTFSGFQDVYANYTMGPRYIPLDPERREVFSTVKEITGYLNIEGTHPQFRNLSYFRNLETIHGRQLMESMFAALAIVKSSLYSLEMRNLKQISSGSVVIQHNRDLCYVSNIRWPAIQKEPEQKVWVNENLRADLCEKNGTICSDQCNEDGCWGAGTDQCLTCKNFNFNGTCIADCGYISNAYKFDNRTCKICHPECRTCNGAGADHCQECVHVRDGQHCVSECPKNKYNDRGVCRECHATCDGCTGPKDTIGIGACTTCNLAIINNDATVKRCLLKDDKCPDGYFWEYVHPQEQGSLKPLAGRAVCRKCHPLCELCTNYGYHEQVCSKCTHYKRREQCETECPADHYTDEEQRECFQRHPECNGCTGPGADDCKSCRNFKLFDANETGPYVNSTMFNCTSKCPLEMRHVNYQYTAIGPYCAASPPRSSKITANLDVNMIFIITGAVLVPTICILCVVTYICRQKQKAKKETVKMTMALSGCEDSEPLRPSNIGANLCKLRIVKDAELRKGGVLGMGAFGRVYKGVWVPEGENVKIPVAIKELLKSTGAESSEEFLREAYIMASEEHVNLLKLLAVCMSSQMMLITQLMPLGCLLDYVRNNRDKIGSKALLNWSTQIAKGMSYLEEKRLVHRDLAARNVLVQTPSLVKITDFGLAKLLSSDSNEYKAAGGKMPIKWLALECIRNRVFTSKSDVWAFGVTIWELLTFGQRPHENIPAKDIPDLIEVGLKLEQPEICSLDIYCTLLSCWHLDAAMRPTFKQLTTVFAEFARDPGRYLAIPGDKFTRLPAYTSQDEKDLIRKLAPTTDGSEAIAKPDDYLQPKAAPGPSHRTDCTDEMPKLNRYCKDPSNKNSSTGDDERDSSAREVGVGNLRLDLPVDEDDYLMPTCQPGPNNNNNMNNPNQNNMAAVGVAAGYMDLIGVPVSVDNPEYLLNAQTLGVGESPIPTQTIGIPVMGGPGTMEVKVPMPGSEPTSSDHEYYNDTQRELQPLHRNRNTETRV


Experiments:
Drosophila Keren = system: T1, Drosophila Keren
[1] = system: uncleavable Spitz-TGFα chimera (Spitz with residues 140-160 replaced by the equivalent residues from TGFα, with the TGFα C-terminus)
Drosophila Gurken = system: T2, Drosophila Gurken
Drosophila EGF receptor = molecular target: T3, Drosophila EGF receptor
[2] = system: human TGFα (EGFP inserted between residues 32 and 33)
[3] = system: T4, GFP-Spitz (Drosophila Spitz with EGFP inserted between residues 33 and 34)
[4] = molecular target: human TGFα (EGFP inserted between residues 32 and 33); remark: listed apart in the source
[5] = molecular target: uncleavable Spitz-TGFα chimera with Spitz residue G143 restored in the TGFα TMD
[6] = molecular target: uncleavable Spitz-TGFα chimera (Spitz with residues 140-160 replaced by the equivalent residues from TGFα, with the TGFα C-terminus); remark: listed apart in the source
Drosophila Delta, P10041 = molecular target: T5, Drosophila Delta, P10041
[7] = molecular target: T6, Drosophila EGF receptor, P04412

Row | Molecule | cleavage of polypeptide substrates (Drosophila Keren) | cleavage of polypeptide substrates [1] | cleavage of polypeptide substrates (Drosophila Gurken) | cleavage of polypeptide substrates (Drosophila EGF receptor) | cleavage of polypeptide substrates [2] | cleavage of polypeptide substrates [3] | cleavage of type-I membrane proteins [4] | cleavage of the uncleavable Spitz-TGFα chimera with single Spitz residues put back [5] | cleavage of Spitz/TGFα TMD chimeras, without Star, with batimastat [6] | cleavage of type-I membrane proteins (Drosophila Delta, P10041) | cleavage of type-I membrane proteins [7] | cleavage of type-I membrane proteins (human TGN38)
1 | Drosophila Rhomboid-4 | Rhomboid-4 cleaves all the polypeptide substrates tested so far, including ... Keren | Rhomboid-4 cleaves all the polypeptide substrates tested so far, including ... the 'non-cleavable' Spitz/TGFα chimera | Rhomboid-4 cleaves all the polypeptide substrates tested so far, including ... Gurken | Rhomboid-4 cleaves all the polypeptide substrates tested so far, including ... the completely unrelated Drosophila EGF receptor | Rhomboid-4 cleaves all the polypeptide substrates tested so far, including ... human TGFα | Rhomboid-4 cleaves all the polypeptide substrates tested so far, including Spitz |  |  |  |  |  | 
2 | Drosophila Rhomboid-1 (triple HA tag at the N-terminus) (protein) MENPTQNVNETKVDLGQEKEKEASQEEEHATAAKETIIDIPAACSSSSNSSSYDTDCSTASSTCCTRQGEHIYMQREAIPATPLPESEDIGLLKYVHRQHWPWFILVISIIEIAIFAYDRYTMPAQNFGLPVPIPSDSVLVYRPDRRLQVWRFFSYMFLHANWFHLGFNIVIQLFFGIPLEVMHGTARIGVIYMAGVFAGSLGTSVVDSEVFLVGASGGVYALLAAHLANITLNYAHMKSASTQLGSVVIFVSCDLGYALYTQYFDGSAFAKGPQVSYIAHLTGALAGLTIGFLVLKNFGHREYEQLIWWLALGVYCAFTVFAIVFNLINTVTAQLMEEQGEVITQHLLHDLGVS |  |  |  |  |  |  | Rhomboid-1 could not cleave other type-I membrane proteins including ... human TGFα | substitution of only Spitz residue G143 restored cleavage of this chimeric substrate | replacing the remaining 5 residues (residues 140-160) abolished cleavage | Rhomboid-1 could not cleave other type-I membrane proteins including ... Drosophila Delta | Rhomboid-1 could not cleave other type-I membrane proteins including Drosophila EGF receptor | Rhomboid-1 could not cleave other type-I membrane proteins including ... human TGN38
